According to paper PMC10063552, “Utilizing genetic code expansion to modify N-TIMP2 specificity towards MMP-2, MMP-9, and MMP-14” (Scientific Reports, 2023):

Key:
Assay in all cases: enzyme inhibition assay (cleavage of a chromogenic substrate, fit to Morrison's tight binding equation); MMP-2ACT (0.6 nM), MMP-9CAT (3 nM) or MMP-14CAT (1 nM) incubated with 0-25 nM N-TIMP2 variant in 50 mM HEPES, 10 mM CaCl2, 0.05% Brij-35, 1 mM DTNB, pH 7.5, 1 h at 37 °C; then 100 µM chromogenic substrate, absorbance at 412 nm at 37 °C; Ki from three independent experiments
Conditions in all cases: both partners purified
[1] = biological target: T1, activated MMP-2 (MMP-2ACT) (human, APMA-activated in vitro (propeptide 30-109 removed); catalytic Zn2+, structural Zn2+ and Ca2+ ions. Limits are not printed: full-length active chain taken from the UniProt feature. The tables label it)
T1 chain: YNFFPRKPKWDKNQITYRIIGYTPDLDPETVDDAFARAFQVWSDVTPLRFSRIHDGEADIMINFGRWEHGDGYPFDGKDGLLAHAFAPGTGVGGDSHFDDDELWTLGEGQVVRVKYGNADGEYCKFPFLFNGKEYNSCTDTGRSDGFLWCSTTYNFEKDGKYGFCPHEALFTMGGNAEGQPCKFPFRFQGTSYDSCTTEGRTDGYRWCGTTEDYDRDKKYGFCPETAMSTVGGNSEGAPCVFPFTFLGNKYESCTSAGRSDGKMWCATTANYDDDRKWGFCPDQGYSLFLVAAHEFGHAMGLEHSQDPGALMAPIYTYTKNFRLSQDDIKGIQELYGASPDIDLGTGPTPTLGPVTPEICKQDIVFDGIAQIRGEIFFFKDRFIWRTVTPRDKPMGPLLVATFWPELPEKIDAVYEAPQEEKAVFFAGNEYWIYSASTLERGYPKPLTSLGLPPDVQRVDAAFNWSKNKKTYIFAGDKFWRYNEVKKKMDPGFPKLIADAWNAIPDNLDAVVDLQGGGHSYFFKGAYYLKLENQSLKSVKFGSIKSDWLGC

[2] = biological target: T2, human MMP-9 catalytic domain (MMP-9CAT) (human, UniProt P14780 107-215; P14780 391-443)
T2 construct: Matrix metalloproteinase-9 (MMP-9), human, catalytic domain, first stretch, residues 107-215; Matrix metalloproteinase-9 (MMP-9), human, catalytic domain, second stretch, residues 391-443 (residues 216-390 left out); no linker between the two stretches is stated
T2 chain (looked up): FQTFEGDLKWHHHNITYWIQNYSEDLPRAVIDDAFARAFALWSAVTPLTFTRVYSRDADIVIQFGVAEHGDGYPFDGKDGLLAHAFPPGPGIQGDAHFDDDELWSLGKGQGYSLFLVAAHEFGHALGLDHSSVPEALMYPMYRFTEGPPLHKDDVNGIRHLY

[3] = biological target: T3, human MMP-14 catalytic domain (MMP-14CAT) (human, UniProt P50281 112-292)
T3 construct: Matrix metalloproteinase-14 (MMP-14), human, catalytic domain, residues 112-292

B1: N-terminal domain of TIMP2 (N-TIMP2), wild type (domain or fragment, human, UniProt P16035 27-153, looked up)
chain: CSCSPVHPQQAFCNADVVIRAKAVSEKEVDSGNDIYGNPIKRIQYEIKQIKMFKGPEKDIEFIYTAPSSAVCGVSLDVGGKKEYLIAGKAEGDGKMHITLCDFIVPWDTLSTTQKKSLNHRYQMGCE
notes: numbers count on: the mature protein (Cys1 is the N-terminal residue); Cloned into the pMECS vector; also called wild-type N-TIMP2; parental N-TIMP2; source: E. coli WK6, periplasmic extract, purified (Ni-NTA)
Ki [1]: 0.233 nM | Ki [2]: 0.322 nM | Ki [3]: 0.711 nM
